In assay [1] the target is triply phosphorylated His8-tagged Nephrin cytoplasmic tail (amino acids 1174-1223, Y1183F, Y1210F; pTyr1176, pTyr1193, pTyr1217) (human).
Assay [2] has as its target triply phosphorylated TIR3Y (His8-tagged human Nephrin tail with its pTyr sites replaced by the pTyr motif of EPEC Tir) (EPEC | human).
The target in assay [3] is (SH3)3: three repeats of the second Nck SH3 domain, plus the Nck SH2 domain (human).

Substance “(SH3)3: three repeats of the second Nck SH3 domain, plus the Nck SH2 domain (designed binder)” yielded a clustering concentration of (SH3)3 (SH3 module concentration) on bilayers with p-Nephrin and 500 nM N-WASP in assay [1] of 200 nM. In assay [2], this substance yielded a clustering concentration of (SH3)3 (SH3 module concentration) on bilayers with p-TIR at 2000 molecules/um^2 and 500 nM N-WASP of 100 nM.
As for “TIR-1pY: N-terminal rhodamine labeled single pTyr motif from EPEC Tir protein (peptide)”, in assay [3], the equilibrium fractional intensity of p-Nephrin clusters (1 uM (SH3)3, 500 nM N-WASP) against peptide concentration, 100 nM to 100 uM; the pair that is blocked: (SH3)3 with p-Nephrin is greater than 10 µM.
